Experimental data taken from publication PMC11488477, “TDP-43 Amyloid Fibril Formation via Phase Separation-Related and -Unrelated Pathways” (ACS Chemical Neuroscience, 2024).

Target: the molecule itself
Experiment: thioflavin T fluorescence + negative-stain TEM; protein alone in buffer with ThT, 20 uM (higher at pH 4 and 5), pH 4-7, 0-300 mM NaCl, 1% DMSO, 96-well plate, 30 °C; long-period assays (Figure 5) incubated without shaking; self-assembly into amyloid fibrils

B1: C-terminal domain of TDP-43 (residues 266-414), wild type (domain or fragment, UniProt Q13148 266-414, looked up)
chain: SNRQLERSGRFGGNPGGFGNQGGFGNSRGGGAGLGNNQGSNMGGGMNFGAFSINPAMMAAAQAALQSSWGMMGMLASQQNQSGPSGNNQNQGNMQREPNQAFGSGNNSYSGSNSGAAIGWGSASNAGSGSGFNGGFGSSMDSKSSGWGM
notes: TDP-43, C-terminal domain (intrinsically disordered region), residues 266-414; UniProt entry Q13148; also called TDP-43's IDR; wild-type TDP-43
**Q.** Does B1 bind?
**A.** binds
